The values below come from patent CN1977043A (CBR INST FOR BIOMED RES INC, dated 2007).

The target of the assay is IgM CM-22. In words: SPR (Biacore CM5), N2 10.5-120μM injected over amine-coupled IgM CM-22, steady-state fit to 1:1 Langmuir isotherm.

The term Kd denotes the concentration at which binding is half-saturated.

Sequence of IgM CM-22 (chain, as listed by the source, chain 1 of 2): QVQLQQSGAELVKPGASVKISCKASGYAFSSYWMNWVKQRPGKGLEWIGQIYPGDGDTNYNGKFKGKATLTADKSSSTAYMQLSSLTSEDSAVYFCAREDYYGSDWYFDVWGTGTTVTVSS
Sequence of IgM CM-22 (chain, as listed by the source, chain 2 of 2): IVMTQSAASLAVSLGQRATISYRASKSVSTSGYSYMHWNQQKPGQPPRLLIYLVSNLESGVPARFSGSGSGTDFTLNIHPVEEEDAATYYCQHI

B1: self peptide N2 (peptide)
peptide: LMKNMDPLNDNV
notes: also called 自身肽N2; N2肽
As to B1, the Kd amounted to 123 µM.
